Tests used:
[1] = substrate: CCCCCCCCCCCCCCCCCC(=O)SCCNC(=O)CCNC(=O)[C@H](O)C(C)(C)COP(=O)(O)OP(=O)(O)OC[C@H]1O[C@@H](n2cnc3c(N)ncnc32)[C@H](O)[C@@H]1OP(=O)(O)O; assay: heptadecane formation by GC-FID; Eadie-Hofstee plot; format: biochemical, Chlorella variabilis; settings: blue light, 20 h, 25 °C, 50 mM Tris-HCl pH 8.5, 30 vol% DMSO, lithium salt, kcat unit doubtful (Vmax 3.22 μM/h)
[2] = substrate: CCCCCCCCCCCCCCCCCC(=O)O; assay: as above; format: biochemical, Chlorella variabilis; settings: blue light, 20 h, 25 °C, 50 mM Tris-HCl pH 8.5, 30 vol% DMSO, lithium salt, kcat unit doubtful (Vmax 2.83 μM/h)

B1: CvFAP (fatty acid photodecarboxylase) (Chlorella variabilis) (protein)
chain: SAVEDIRKVLSDSSSPVAGQKYDYILVGGGTAACVLANRLSADGSKRVLVLEAGPDNTSRDVKIPAAITRLFRSPLDWNLFSELQEQLAERQIYMARGRLLGGSSATNATLYHRGAAGDYDAWGVEGWSSEDVLSWFVQAETNADFGPGAYHGSGGPMRVENPRYTNKQLHTAFFKAAEEVGLTPNSDFNDWSHDHAGYGTFQVMQDKGTRADMYRQYLKPVLGRRNLQVLTGAAVTKVNIDQAAGKAQALGVEFSTDGPTGERLSAELAPGGEVIMCAGAVHTPFLLKHSGVGPSAELKEFGIPVVSNLAGVGQNLQDQPACLTAAPVKEKYDGIAISDHIYNEKGQIRKRAIASYLLGGRGGLTSTGCDRGAFVRTAGQALPDLQVRFVPGMALDPDGVSTYVRFAKFQSQGLKWPSGITMQLIACRPQSTGSVGLKSADPFAPPKLSPGYLTDKDGADLATLRKGIHWARDVARSSALSEYLDGELFPGSGVVSDDQIDEYIRRSIHSSNAITGTCKMGNAGDSSSVVDNQLRVHGVEGLRVVDASVVPKIPGGQTGAPVVMIAERAAALLTGKATIGASAAAPATVAA
notes: codon-optimised gene, C-terminal 6xHis tag (3'-terminus), pET28, E. coli BL21(DE3), Ni-NTA purified
Km [1]: 75.30 µM
Km [2]: 108.31 µM
kcat [2]: 979.62 s⁻¹

From paper PMC7713262, “Synthesis of high-titer alka(e)nes in Yarrowia lipolytica is enabled by a discovered mechanism” (Nature Communications, 2020)
